Where two headings read alike, the source gives them in different places.
Experiments:
[1] = target: T1, CCL4_HUMAN (Homo sapiens, UniProt P13236); assay: Yeast surface display (YSD) FACS binding
T1 sequence (P13236 24-92): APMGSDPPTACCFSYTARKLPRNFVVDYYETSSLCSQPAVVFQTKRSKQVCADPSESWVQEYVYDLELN
Outline: (§1)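 Yeast clones displaying tick peptides were re-tested by FACS with labelled chemokine. Binding = % of peptide-expressing yeast above a background threshold set with streptavidin-Alexa647 alone; the mean percent shift was used where several clones were isolated. Confirmed binding ("YES") required >3-fold over background mean fluorescence intensity.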

[2] = test system: chemokines; details: list of chemokines bound, from the literature [18,20-22]; cited from earlier work
[3] = target: T2, CXCL1_HUMAN (Homo sapiens, UniProt P09341); details: read-out: Kd, CXCL1_HUMAN, previously described evasins; data obtained from publications [20-22,32]; cited from earlier work
T2 sequence (P09341 35-107): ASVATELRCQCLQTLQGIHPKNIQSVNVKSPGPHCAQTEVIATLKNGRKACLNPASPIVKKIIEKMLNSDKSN

[4] = target: T3, CXCL8_HUMAN (Homo sapiens, UniProt P10145); details: read-out: Kd, CXCL8_HUMAN, previously described evasins; data obtained from publications [20-22,32]; cited from earlier work
T3 sequence (P10145 21-99): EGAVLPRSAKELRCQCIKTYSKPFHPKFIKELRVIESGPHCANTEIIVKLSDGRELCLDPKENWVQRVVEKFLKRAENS

[5] = target: T4, CXCL3_HUMAN (Homo sapiens, UniProt P19876); assay: Biolayer interferometry (BLI) binding
T4 sequence (P19876 35-107): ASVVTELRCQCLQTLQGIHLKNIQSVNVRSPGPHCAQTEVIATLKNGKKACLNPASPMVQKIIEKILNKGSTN
Outline: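 Ni-NTA biosensor loaded with His-tagged tick chemokine-binding protein; 300 nM chemokine cross-binding screen; hits repeated with chemokine dose series; Kd from fitted kinetic and equilibrium data.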

[6] = target: T2, CXCL1_HUMAN; assay: Biolayer interferometry (BLI) binding; set-up: label (chemical)
Description: (§2) Table 1. Tick CKBPs described in PCT/GB2017/050563 and [17]. Tick peptide sequences isolated in yeast surface display fluorescent-activated cell sorting (FACS) screens using a labelled chemokine. Identity with Evasin-1, 4 or 3 was calculated using BLAST. Abbreviations: IXORI—Ixodes ricinus, RHISA—Rhipicephalus sanguineus, AMBMA—Amblyomma maculatum, AMBPA—Amblyomma parvum, AMBTR—Amblyomma triste, AMBAM—Amblyomma americanum, AMBCA—Amblyomma cajennense, RHIPU—Rhipicephalus pulchellus. Table 2A-C. Binding characteristics of tick CKBPs previously disclosed (PCT/GB2017/050563 and [17]). All members of the human chemokine family[164] are listed in column 1. Binding to human chemokines was determined for 14 tick CKBPs using biolayer interferometry (BLI) with calculated Kd shown as Molar (Moles/Litre). […] Association, equilibrium and dissociation data were analysed using Octet software to create corresponding fitted curves, and used to calculate Kd. For yeast surface display, (YSD) background fluorescence was controlled for by using either an empty vector or by omitting the chemokine (i.e. using streptavidin-Alexa647 alone). An arbitrary threshold of >3 fold over background mean fluorescence intensity was chosen to describe confirmed re-tests. Where binding was detected data are indicated as “YES”. […] Data was analysed using GraphPad Prism to determine IC50, which is shown as Molar (Moles/Litre). […]

[7] = target: T3, CXCL8_HUMAN; assay: Biolayer interferometry (BLI) binding; set-up: label (chemical)
Description: as §2

[8] = target: T5, CCL15_HUMAN (Homo sapiens, UniProt Q16663); assay: Yeast surface display (YSD) FACS binding
T5 sequence (Q16663 22-113): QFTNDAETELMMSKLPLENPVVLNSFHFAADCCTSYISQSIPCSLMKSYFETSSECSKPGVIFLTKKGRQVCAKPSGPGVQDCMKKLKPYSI
Outline: as §1

[9] = target: T6, CCL19_HUMAN (Homo sapiens, UniProt Q99731); assay: Yeast surface display (YSD) FACS binding
T6 sequence (Q99731 22-98): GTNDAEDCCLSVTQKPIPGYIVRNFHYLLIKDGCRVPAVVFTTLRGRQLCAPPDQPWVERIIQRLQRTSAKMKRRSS
Outline: as §1

[10] = target: T7, CCL25_HUMAN (Homo sapiens, UniProt O15444); assay: Yeast surface display (YSD) FACS binding
T7 sequence (O15444 24-150): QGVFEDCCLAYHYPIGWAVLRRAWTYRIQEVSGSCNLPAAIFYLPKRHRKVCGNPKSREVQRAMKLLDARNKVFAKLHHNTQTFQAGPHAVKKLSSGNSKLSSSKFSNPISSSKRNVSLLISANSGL
Outline: as §1

[11] = target: T8, CCL5_HUMAN (Homo sapiens, UniProt P13501); assay: Yeast surface display (YSD) FACS binding
T8 sequence (P13501 24-91): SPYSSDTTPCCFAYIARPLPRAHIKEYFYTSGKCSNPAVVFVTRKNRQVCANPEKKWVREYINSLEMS
Outline: as §1

B1: P1014_AMBCA: tick CKBP, Amblyomma cajennense (protein)
chain: DIIGGIPGCGDPTTTSAPEVPPKHFAVRTDKDGCTLMIIGTWMTTEDHNRLPPDIGEKRAPYGRVQLPASCKKNCHGKVKNLPNGTPCREVFGDPRRGRKHIKNGCTVGKCQSGLCVTDKRIISCYIPPNITDPIPTHGPWAE
modifications: Amblyomma cajennense
Binding to CCL4_HUMAN, YSD [1]: YES (An arbitrary threshold of >3 fold over background mean fluorescence intensity was chosen to describe confirmed re-tests. Where binding was detected data are indicated as “YES”)

B2: EVASIN3: previously described tick CKBP evasin 3, from Rhipicephalus sanguineus (protein, listed as Rhipicephalus sanguineus)
chain: LVSTIESRTSGDGADNFDVVSCNKNCTSGQNECPEGCFCGLLGQNKKGHCYKIIGNLSGEPPVVRR
Previously described chemokine binding [2]: CXCL1, CXCL8.
Kd [3]: 0.85 nM
Kd [4]: 0.43 nM

B3: P1156_IXORI: tick CKBP, Ixodes ricinus (protein, listed as Ixodes ricinus)
chain: ADDDNELFTVQYCGMNCTKDEGGTWTGCTGKKEGCKCYHESGKNYGLCLSTEYTDFSQYGNPSDSEIEAAKPKRSDTLSH
Kd [5]: 81 nM
Kd [6]: 3.25 nM
Kd [7]: 4.6 nM

B4: P1006_AMBCA: tick CKBP, Amblyomma cajennense (protein)
chain: DTIGGIPGCGDPATTSAPEDQPKHYAVRTDKNGCKVMVIGTWMTKEDHNLLPPYISKERAPSGKVQLPASCKKNCHGKLKNLPNGTPCREVFGDLRRRRKHIKDGCKVGKCQNGLCVSEERIISCYLPPNITDPRPTHGPLAE
modifications: Amblyomma cajennense
Binding to CCL15_HUMAN, YSD [8]: YES (An arbitrary threshold of >3 fold over background mean fluorescence intensity was chosen to describe confirmed re-tests. Where binding was detected data are indicated as “YES”)
Binding to CCL19_HUMAN, YSD [9]: YES (An arbitrary threshold of >3 fold over background mean fluorescence intensity was chosen to describe confirmed re-tests. Where binding was detected data are indicated as “YES”)
Binding to CCL25_HUMAN, YSD [10]: YES (An arbitrary threshold of >3 fold over background mean fluorescence intensity was chosen to describe confirmed re-tests. Where binding was detected data are indicated as “YES”)
Binding to CCL5_HUMAN, YSD [11]: YES (An arbitrary threshold of >3 fold over background mean fluorescence intensity was chosen to describe confirmed re-tests. Where binding was detected data are indicated as “YES”)

Source: patent US20200247855A1, “THERAPY AND DIAGNOSTICS” (OXFORD UNIVERSITY INNOVATION LIMITED, priority 2017, published 2020)
